Molecular target: T1, zPol θ (zebrafish DNA polymerase theta, polymerase domain) (Danio rerio (zebrafish), UniProt F1Q4P4 1798-2576)
T1 sequence: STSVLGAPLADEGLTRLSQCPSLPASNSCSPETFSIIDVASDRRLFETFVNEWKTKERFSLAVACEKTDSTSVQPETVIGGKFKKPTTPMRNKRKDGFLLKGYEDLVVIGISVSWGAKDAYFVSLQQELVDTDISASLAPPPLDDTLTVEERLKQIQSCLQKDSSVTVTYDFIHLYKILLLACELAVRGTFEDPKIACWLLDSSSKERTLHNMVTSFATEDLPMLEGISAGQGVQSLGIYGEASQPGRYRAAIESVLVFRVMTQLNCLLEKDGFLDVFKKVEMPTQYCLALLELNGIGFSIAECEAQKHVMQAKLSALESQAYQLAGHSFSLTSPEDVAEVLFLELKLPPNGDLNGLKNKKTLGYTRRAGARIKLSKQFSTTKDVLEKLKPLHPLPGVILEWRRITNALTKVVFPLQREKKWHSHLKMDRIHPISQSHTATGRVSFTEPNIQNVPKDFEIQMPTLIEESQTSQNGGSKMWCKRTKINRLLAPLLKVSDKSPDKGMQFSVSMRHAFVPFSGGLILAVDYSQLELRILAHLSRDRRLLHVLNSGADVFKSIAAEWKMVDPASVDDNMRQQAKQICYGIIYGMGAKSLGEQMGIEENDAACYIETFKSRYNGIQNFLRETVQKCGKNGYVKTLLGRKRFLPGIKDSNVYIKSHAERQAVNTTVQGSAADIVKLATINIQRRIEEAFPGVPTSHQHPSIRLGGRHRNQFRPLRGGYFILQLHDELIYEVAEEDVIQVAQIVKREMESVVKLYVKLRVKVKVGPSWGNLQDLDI
Test: EMSA

B1: 25/40 undamaged DNA substrate (dsDNA)
DNA 1: TTTGCCTTGACCATGTAACAGAGAG
DNA 2: TCTCTTCTCTCACTCACGCTCTCTGTTACATGGTCAAGGC
  Kd: ~19.8 nM

Source: paper PMC11463350
